Test results reported in patent US20240034815A1 (Xencor, published 2024).

Tests used:
[1] = biological target: T1, cell surface GPC3 on GPC3-expressing cell lines (HepG2 GPC3^high, Huh7 GPC3^med) (UniProt P51654 25-554); assay: cell-based or functional assay
[2] = biological target: T1, cell surface GPC3 on GPC3-expressing …; assay: flow cytometry on HepG2 (GPC3high) cells, anti-human Fc secondary
Procedure: (§1) Next, binding of the variants to cell surface GPC3 was investigated. Illustrative affinity variants H1.1_L1.29, H1.1_L1.16, and H1.1_L1.31 were engineered in the 1+1 Fab-scFv-Fc format. […] Cells were then washed and stained with a secondary antibody (typically anti-human Fc AlexaFlour647) for 1 hr at 4° C. After 2 more washes, cells were analyzed by flow cytometry.

His-tagged human GPC3 = biological target: T2, His-tagged human GPC3 (human, UniProt P51654 25-559, limits assumed); assay: Octet (BLI); His-tagged GPC3 captured on HIS1K sensors, bsAb in solution
T2 construct: Captured on HIS1K sensors in the Octet assay; also called human GPC3 antigen; Glypican 3; not shown: His tag
T2 sequence (P51654 25-559 limits assumed): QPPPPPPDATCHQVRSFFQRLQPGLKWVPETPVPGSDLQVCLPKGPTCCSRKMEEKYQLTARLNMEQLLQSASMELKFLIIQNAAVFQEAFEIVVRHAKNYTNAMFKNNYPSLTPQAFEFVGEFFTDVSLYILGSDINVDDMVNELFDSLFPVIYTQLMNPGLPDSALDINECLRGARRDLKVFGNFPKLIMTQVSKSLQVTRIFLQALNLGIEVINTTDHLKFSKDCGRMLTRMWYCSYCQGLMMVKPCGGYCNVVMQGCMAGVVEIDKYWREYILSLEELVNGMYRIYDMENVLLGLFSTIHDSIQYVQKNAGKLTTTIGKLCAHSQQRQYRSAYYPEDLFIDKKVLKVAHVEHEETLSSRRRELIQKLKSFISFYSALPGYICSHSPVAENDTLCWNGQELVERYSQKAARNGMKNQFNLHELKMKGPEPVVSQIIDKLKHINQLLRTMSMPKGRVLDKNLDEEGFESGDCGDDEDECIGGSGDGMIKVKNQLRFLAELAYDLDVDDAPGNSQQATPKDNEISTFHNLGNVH
Procedure: After humanization, GPC3 binding arms were engineered with single point mutations in the variable light domain with the aim to create a ladder of GPC3 binding affinity, illustrative sequences for which are depicted in FIG. 13. 73 variable light domain variants were engineered and paired with GPC3-A H1.1 (see Example 3C for description of GPC3-A H1.1 variant). The GPC3-A variants were engineered in the 1+1 Fab-scFv-Fc bsAb format and binding for GPC3 antigen was measured using Octet, a BioLayer Interferometry (BLI)-based method. Experimental steps for Octet generally include the following: Immobilization (capture of ligand to a biosensor); Association (dipping of ligand-coated biosensors into wells containing the analyte); and Dissociation (returning of biosensors to well containing buffer). For ease of clinical development (e.g. by investigating the therapeutics in model animals), it is useful for the binding domains to be cross-reactive for cynomolgus antigen; therefore, binding to both human and cynomolgus GPC3 antigen were investigated. His-tagged human and cynomolgus GPC3 were captured on HIS1K sensors then dipped into multiple concentrations of the bispecific antibodies. The resulting dissociation constant (KD) are depicted in FIG. 23.

[3] = biological target: T1, cell surface GPC3 on GPC3-expressing …; assay: flow cytometry on HepG2 (GPC3high) cells, secondary antibody stain
Procedure: as §1

T1 sequence (P51654 25-554 limits assumed): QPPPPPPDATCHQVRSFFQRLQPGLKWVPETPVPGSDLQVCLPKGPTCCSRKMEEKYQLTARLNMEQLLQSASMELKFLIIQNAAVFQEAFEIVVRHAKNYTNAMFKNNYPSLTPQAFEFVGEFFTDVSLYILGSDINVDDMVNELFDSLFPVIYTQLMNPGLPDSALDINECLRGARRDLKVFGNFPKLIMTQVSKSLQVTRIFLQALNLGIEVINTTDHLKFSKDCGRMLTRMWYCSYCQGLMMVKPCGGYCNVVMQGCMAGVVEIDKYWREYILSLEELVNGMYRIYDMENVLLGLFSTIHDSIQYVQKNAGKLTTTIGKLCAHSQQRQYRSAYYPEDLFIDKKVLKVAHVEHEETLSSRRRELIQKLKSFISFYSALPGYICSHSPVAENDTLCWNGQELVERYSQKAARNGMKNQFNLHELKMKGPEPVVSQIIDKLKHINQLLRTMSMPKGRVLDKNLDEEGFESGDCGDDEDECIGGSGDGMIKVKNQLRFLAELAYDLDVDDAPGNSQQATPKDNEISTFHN

| EC50 of RTCC (2D RTCC on Incucyte, HepG2, 10:1 effector:target ratio) [1] | EC50 (read off the curve) [2] | Kd (His-tagged human GPC3) | EC50 (read off the curve) [3] | Binder |
| --- | --- | --- | --- | --- |
| < 0.1 µg/mL | – | – | – | XENP34920 (bispecific antibody) heavy 1: QVQLVQSGAEVKKPGASVKVSCKASGYTFTDYEMHWVRQAPGQGLEWMGALEPKTGDTAYSQKFQGRVTMTADKSISTAYMELSRLRSDDTAVYYCTRFYSYTYWGQGTLVTVSSASTKGPSVFPLAPSSKSTSGGTAALGCLVKDYFPEPVTVSWNSGALTSGVHTFPAVLQSSGLYSLSSVVTVPSSSLGTQTYICNVNHKPSDTKVDKKVEPKSCDKTHTCPPCPAPPVAGPSVFLFPPKPKDTLMISRTPEVTCVVVDVKHEDPEVKFNWYVDGVEVHNAKTKPREEEYNSTYRVVSVLTVLHQDWLNGKEYKCKVSNKALPAPIEKTISKAKGQPREPQVYTLPPSREEMTKNQVSLTCDVSGFYPSDIAVEWESDGQPENNYKTTPPVLDSDGSFFLYSKLTVDKSRWEQGDVFSCSVMHEALHNHYTQKSLSLSPGK heavy 2: QVQLVQSGAEVKKPGASVKVSCKASGYTFTDYEMHWVRQAPGQGLEWMGALEPKTGDTAYSQKFQGRVTMTADKSISTAYMELSRLRSDDTAVYYCTRFYSYTYWGQGTLVTVSSASTKGPSVFPLAPSSKSTSGGTAALGCLVKDYFPEPVTVSWNSGALTSGVHTFPAVLQSSGLYSLSSVVTVPSSSLGTQTYICNVNHKPSNTKVDKKVEPKSCGGGGSGGGGSQAVVTQEPSLTVSPGGTVTLTCGSSTGAVTTSNYANWVQQKPGKSPRGLIGGTNKRAPGVPARFSGSLLGGKAALTISGAQPEDEADYYCALWYSNHWVFGGGTKLTVLGKPGSGKPGSGKPGSGKPGSEVQLVESGGGLVQPGGSLRLSCAASGFTFSTYAMNWVRQAPGKGLEWVGRIRSKANNYATYYADSVKGRFTISRDDSKNTLYLQMNSLRAEDTAVYYCVRHGNFGDSYVSWFAYWGQGTLVTVSSGGGGSGGGGSKTHTCPPCPAPPVAGPSVFLFPPKPKDTLMISRTPEVTCVVVDVKHEDPEVKFNWYVDGVEVHNAKTKPREEQYNSTYRVVSVLTVLHQDWLNGKEYKCKVSNKALPAPIEKTISKAKGQPREPQVYTLPPSREQMTKNQVKLTCLVKGFYPSDIAVEWESNGQPENNYKTTPPVLDSDGSFFLYSKLTVDKSRWQQGNVFSCSVMHEALHNHYTQKSLSLSPGK light: DVVMTQSPLSLPVTLGQPASISCRSSQSLVHSSGNTYLHWYQQRPGQSPRLLIYKVSNRFSGVPDRFSGSGSGTDFTLKISRVEAEDVGVYFCSQSTHVPPTFGSGTKLEIKRTVAAPSVFIFPPSDEQLKSGTASVVCLLNNFYPREAKVQWKVDNALQSGNSQESVTEQDSKDSTYSLSSTLTLSKADYEKHKVYACEVTHQGLSSPVTKSFNRGEC |
| – | ~3 µg/mL | 400 nM | ~3 µg/mL | XENP36140 (GPC3-A H1.1_L1.31 formatted as 1+1 Fab-scFv-Fc with CD3 High-Int #1 scFv) (bispecific antibody, 1+1 Fab-scFv-Fc, human IgG1 heterodimeric backbone; treated as one molecule; also called [GPC3]H1.1_L1.31) heavy: QVQLVQSGAEVKKPGASVKVSCKASGYTFTDYEMHWVRQAPGQGLEWMGALEPKTGDTAYSQKFQGRVTMTADKSISTAYMELSRLRSDDTAVYYCTRFYSYTYWGQGTLVTVSSASTKGPSVFPLAPSSKSTSGGTAALGCLVKDYFPEPVTVSWNSGALTSGVHTFPAVLQSSGLYSLSSVVTVPSSSLGTQTYICNVNHKPSDTKVDKKVEPKSCDKTHTCPPCPAPPVAGPSVFLFPPKPKDTLMISRTPEVTCVVVDVKHEDPEVKFNWYVDGVEVHNAKTKPREEEYNSTYRVVSVLTVLHQDWLNGKEYKCKVSNKALPAPIEKTISKAKGQPREPQVYTLPPSREEMTKNQVSLTCDVSGFYPSDIAVEWESDGQPENNYKTTPPVLDSDGSFFLYSKLTVDKSRWEQGDVFSCSVMHEALHNHYTQKSLSLSPGK scFv-Fc: not shown light: DVVMTQSPLSLPVTLGQPASISCRSSQSLVHSNGNTYLHWYQQRPGQSPRLLIYYVSNRFSGVPDRFSGSGSGTDFTLKISRVEAEDVGVYFCSQNTHVPPTFGSGTKLEIKRTVAAPSVFIFPPSDEQLKSGTASVVCLLNNFYPREAKVQWKVDNALQSGNSQESVTEQDSKDSTYSLSSTLTLSKADYEKHKVYACEVTHQGLSSPVTKSFNRGEC |
